Earlier results on one substance are cited in paper PMC7821625.

In general, Kd refers to a measure of binding affinity in units of concentration.

Series [1] concerns the target fibronectin (Homo sapiens) (UniProt P02751).
Series [2] concerns the target plasminogen (Homo sapiens) (UniProt P00747).
Sequence of UniProt P00747 (P00747 20-810): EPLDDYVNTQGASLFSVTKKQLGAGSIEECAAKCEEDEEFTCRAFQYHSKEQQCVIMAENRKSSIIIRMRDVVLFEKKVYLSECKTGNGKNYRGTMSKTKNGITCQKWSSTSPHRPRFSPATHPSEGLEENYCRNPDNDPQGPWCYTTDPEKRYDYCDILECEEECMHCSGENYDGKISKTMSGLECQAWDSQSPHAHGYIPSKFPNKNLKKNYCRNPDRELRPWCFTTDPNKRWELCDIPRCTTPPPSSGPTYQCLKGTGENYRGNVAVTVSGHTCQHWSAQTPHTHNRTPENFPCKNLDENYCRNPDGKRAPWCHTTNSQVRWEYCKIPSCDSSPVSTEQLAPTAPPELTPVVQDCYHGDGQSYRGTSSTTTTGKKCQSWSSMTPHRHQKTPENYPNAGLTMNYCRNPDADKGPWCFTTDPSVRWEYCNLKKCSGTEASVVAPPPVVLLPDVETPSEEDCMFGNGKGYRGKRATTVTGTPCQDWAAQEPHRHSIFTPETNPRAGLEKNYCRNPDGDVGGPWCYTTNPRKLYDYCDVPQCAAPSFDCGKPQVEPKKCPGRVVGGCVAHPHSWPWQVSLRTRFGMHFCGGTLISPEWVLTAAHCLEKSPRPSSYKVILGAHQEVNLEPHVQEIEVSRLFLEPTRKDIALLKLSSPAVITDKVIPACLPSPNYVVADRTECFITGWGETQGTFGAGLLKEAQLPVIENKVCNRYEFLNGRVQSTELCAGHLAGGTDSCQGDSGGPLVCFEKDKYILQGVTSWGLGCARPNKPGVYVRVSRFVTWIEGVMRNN

Sequence of UniProt P02751 (P02751 32-2477): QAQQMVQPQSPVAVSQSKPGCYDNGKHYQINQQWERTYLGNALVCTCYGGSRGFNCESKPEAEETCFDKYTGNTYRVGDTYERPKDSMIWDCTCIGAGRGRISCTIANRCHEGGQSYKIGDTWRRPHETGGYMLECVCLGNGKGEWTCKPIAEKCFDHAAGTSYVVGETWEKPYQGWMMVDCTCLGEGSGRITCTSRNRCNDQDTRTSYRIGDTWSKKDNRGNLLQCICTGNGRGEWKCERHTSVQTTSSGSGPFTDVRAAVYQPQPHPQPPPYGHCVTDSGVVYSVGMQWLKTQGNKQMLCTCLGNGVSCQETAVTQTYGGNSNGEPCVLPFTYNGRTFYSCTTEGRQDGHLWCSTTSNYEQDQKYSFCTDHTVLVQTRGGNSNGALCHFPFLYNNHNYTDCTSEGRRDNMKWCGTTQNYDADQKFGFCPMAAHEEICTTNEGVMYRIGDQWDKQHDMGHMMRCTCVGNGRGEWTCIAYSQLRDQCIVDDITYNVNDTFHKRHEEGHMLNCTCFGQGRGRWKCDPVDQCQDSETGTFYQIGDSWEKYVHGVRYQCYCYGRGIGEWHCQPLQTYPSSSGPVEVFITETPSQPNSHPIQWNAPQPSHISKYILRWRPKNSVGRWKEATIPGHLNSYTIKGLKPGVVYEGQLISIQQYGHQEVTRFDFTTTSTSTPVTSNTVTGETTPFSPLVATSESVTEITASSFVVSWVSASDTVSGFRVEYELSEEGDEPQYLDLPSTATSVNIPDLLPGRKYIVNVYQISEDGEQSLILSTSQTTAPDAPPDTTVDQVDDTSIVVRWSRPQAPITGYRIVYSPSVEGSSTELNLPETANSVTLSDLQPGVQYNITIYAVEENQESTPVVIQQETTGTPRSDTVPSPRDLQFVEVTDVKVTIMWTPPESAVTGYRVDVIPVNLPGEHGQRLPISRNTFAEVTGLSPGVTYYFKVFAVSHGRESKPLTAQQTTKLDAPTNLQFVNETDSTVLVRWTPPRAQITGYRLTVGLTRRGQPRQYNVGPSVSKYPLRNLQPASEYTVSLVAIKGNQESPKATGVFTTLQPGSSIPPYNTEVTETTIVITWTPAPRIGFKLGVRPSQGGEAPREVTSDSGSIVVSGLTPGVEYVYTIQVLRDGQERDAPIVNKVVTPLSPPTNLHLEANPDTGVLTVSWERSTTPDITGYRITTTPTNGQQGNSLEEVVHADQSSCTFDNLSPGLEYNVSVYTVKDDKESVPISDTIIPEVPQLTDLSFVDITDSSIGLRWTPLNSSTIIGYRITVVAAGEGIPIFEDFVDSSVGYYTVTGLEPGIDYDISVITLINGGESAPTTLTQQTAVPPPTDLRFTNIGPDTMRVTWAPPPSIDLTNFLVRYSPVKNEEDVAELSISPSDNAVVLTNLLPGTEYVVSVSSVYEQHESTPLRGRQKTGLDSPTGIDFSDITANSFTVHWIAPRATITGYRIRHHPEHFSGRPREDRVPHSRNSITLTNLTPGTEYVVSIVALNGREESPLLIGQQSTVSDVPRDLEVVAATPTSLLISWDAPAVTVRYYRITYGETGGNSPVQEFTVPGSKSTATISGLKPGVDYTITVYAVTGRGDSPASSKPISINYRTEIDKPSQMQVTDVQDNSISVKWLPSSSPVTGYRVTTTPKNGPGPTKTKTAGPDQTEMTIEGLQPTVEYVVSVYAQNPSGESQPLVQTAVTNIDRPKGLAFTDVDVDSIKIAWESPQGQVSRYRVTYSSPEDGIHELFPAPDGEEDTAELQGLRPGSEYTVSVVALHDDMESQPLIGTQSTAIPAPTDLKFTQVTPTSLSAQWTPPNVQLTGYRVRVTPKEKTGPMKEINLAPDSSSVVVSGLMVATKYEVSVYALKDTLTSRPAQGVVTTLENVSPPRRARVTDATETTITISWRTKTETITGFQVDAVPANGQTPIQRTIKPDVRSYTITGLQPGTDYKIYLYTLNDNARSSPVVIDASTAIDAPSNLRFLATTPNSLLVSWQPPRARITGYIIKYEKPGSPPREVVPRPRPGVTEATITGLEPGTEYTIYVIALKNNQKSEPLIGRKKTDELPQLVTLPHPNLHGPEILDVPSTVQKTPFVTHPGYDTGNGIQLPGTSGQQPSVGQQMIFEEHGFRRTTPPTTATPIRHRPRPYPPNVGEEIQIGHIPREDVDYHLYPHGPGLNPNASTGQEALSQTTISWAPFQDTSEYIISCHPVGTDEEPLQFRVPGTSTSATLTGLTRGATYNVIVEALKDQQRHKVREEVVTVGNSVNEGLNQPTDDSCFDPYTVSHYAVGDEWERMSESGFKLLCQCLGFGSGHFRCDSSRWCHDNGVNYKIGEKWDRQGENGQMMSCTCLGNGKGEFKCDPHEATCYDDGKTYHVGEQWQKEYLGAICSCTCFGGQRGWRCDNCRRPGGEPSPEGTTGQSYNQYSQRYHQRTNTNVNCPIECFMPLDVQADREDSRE

In the case of LigA LigA7'-13 (from UniProt Q72MA6), the Kd in series [1] was 126 nM; in series [2], 1200 nM.
